Molecular target: avGFP [GFP: P42212]
Assay: SEC

stoichiometry N: 2
Substance: avGFP (from UniProt P42212 1-237) (natural protein)

— paper doi:10.1101/2024.08.01.606258
